The results in this text go back to the Human Domainome abundance scans (Beltran et al. 2025).

± gives the uncertainty stated by the source.

B1: Chromodomain-helicase-DNA-binding protein 4, residues 444 to 496; numbered along this chain, Q14839 (parent)
chain: EDDHHMEFCRVCKDGGELLCCDTCPSSYHIHCLNPPLPEIPNGEWLCPRCTCP

The variants in the series derive from B1. Kind of series: abundance fitness (aPCA) (normalised: wild type 0, dead -1); higher = more abundant; growth selection in yeast, the domain comes from the species named. The conditions noted are these: Homo sapiens.
Take L19M: the abundance fitness stood at 0.041 ± 0.066.
In the case of L19V, the abundance fitness was -0.056 ± 0.059.
L19H: the abundance fitness was -0.189 ± 0.055.
Regarding L19A, the abundance fitness amounted to 0.118 ± 0.048.
L19N: the abundance fitness is -0.116 ± 0.079.
Turning to L19D, the abundance fitness is -0.354 ± 0.089.
Turning to L19S, the abundance fitness is -0.291 ± 0.046.
Take L19R: the abundance fitness was -0.314 ± 0.044.
The figure for L19T is 0.037 ± 0.05; for L19G it is -0.488 ± 0.052.
As for L19C, the abundance fitness is -0.075 ± 0.076.
Under L19I stands 0.1 ± 0.068; under L19Q, -0.157 ± 0.065; under L19F, -0.262 ± 0.073.
Consider L19E, for which the abundance fitness was -0.632 ± 0.1.
Regarding L19Y, the abundance fitness is -0.276 ± 0.066.
In the case of L19K, the abundance fitness is -0.033 ± 0.072.
Turning to L19P, the abundance fitness is -0.484 ± 0.063.
L18I: the abundance fitness is -0.357 ± 0.068.
In the case of L18R, the abundance fitness is -0.394 ± 0.05.
Turning to L18A, the abundance fitness was -0.682 ± 0.09.
Turning to L18G, the abundance fitness was -0.732 ± 0.093.
Turning to L18T, the abundance fitness is -0.373 ± 0.051.
As to L18D, the abundance fitness was -1.3 ± 0.39.
In the case of L18Y, the abundance fitness is -0.751 ± 0.055.
As to L18M, the abundance fitness was 0.037 ± 0.051.
Take L18S: the abundance fitness is -0.717 ± 0.061.
Under L18E stands -0.744 ± 0.1; under L18K, -0.517 ± 0.1; under L18Q, -0.397 ± 0.071.
On to L18C, for which the abundance fitness is -0.761 ± 0.15.
On to L18H, for which the abundance fitness is -0.66 ± 0.079.
With L18N, the abundance fitness was -0.489 ± 0.07.
L18P: the abundance fitness is -1.07 ± 0.072.
Consider L18W, for which the abundance fitness is -0.738 ± 0.054.
On to L18V, for which the abundance fitness is -0.117 ± 0.052.
With L18F, the abundance fitness is -0.581 ± 0.068.
E17C: the abundance fitness was -0.382 ± 0.12.
For E17Q, the abundance fitness was -0.146 ± 0.066.
In the case of E17S, the abundance fitness was -0.184 ± 0.053.
Under E17N stands -0.077 ± 0.062; under E17F, -0.395 ± 0.064.
Take E17W: the abundance fitness is -0.576 ± 0.081.
Turning to E17I, the abundance fitness was -0.206 ± 0.06.
Under E17M stands -0.098 ± 0.06; under E17V, -0.215 ± 0.071; under E17H, -0.906 ± 0.064.
The figure for E17T is 0.015 ± 0.051; for E17R it is -0.123 ± 0.061; for E17Y it is -0.644 ± 0.06.
As to E17D, the abundance fitness was -0.232 ± 0.076.
E17A: the abundance fitness is -0.309 ± 0.064.
For the variant E17P, the abundance fitness is -0.657 ± 0.06.
The figure for E17G is -0.289 ± 0.064.
E17L: the abundance fitness is -0.535 ± 0.047.
As for E17K, the abundance fitness came out at 0.117 ± 0.066.
Under P25C stands -0.087 ± 0.051; under P25K, -0.078 ± 0.055.
For P25A, the abundance fitness was -0.124 ± 0.079.
As to P25G, the abundance fitness was -0.106 ± 0.072.
Turning to P25N, the abundance fitness was -0.303 ± 0.072.
Under P25M stands -0.167 ± 0.054; under P25D, -0.172 ± 0.089; under P25Q, -0.209 ± 0.077.
Consider P25F, for which the abundance fitness was -0.167 ± 0.077.
With P25V, the abundance fitness was -0.18 ± 0.048.
As to P25I, the abundance fitness is -0.15 ± 0.051.
With P25W, the abundance fitness is -0.061 ± 0.087.
The figure for P25L is -0.163 ± 0.044; for P25E it is -0.28 ± 0.15; for P25R it is 0.032 ± 0.058.
Under P25S stands -0.1 ± 0.056; under P25H, -0.024 ± 0.045.
Under D22Y stands -0.112 ± 0.066; under D22P, -0.095 ± 0.045; under D22N, -0.085 ± 0.065.
Turning to D22V, the abundance fitness is -0.159 ± 0.046.
D22K: the abundance fitness amounted to 0.129 ± 0.053.
D22W: the abundance fitness is -0.254 ± 0.08.
Regarding D22M, the abundance fitness is -0.26 ± 0.072.
Under D22L stands -0.067 ± 0.04; under D22E, -0.055 ± 0.093; under D22T, 0.074 ± 0.047.
Turning to D22I, the abundance fitness is -0.399 ± 0.077.
D22F: the abundance fitness amounted to 0.005 ± 0.057.
In the case of D22H, the abundance fitness is -0.02 ± 0.052.
On to D22G, for which the abundance fitness is -0.011 ± 0.05.
In the case of D22R, the abundance fitness was -0.058 ± 0.059.
As to D22Q, the abundance fitness is -0.067 ± 0.072.
Turning to D22A, the abundance fitness was found to be 0.032 ± 0.051.
With S26E, the abundance fitness was 0.015 ± 0.052.
The figure for S26F is -0.039 ± 0.06; for S26C it is -0.05 ± 0.045; for S26A it is 0.104 ± 0.066.
Under C21R stands -0.762 ± 0.052.
Under C21G stands -0.722 ± 0.054.
On to C21P, for which the abundance fitness is -0.829 ± 0.048.
The figure for C21K is -0.795 ± 0.059; for C21A it is -0.71 ± 0.086; for C21H it is -0.745 ± 0.047.
Consider C21N, for which the abundance fitness is -0.787 ± 0.07.
On to C21E, for which the abundance fitness is -0.239 ± 0.1.
The figure for C21I is -0.853 ± 0.066; for C21M it is -0.955 ± 0.067; for C21W it is -1.12 ± 0.1.
As for C21D, the abundance fitness was -0.875 ± 0.086.
As for C21F, the abundance fitness was -1.02 ± 0.12.
Under C21Y stands -0.871 ± 0.066; under C21Q, -0.76 ± 0.09; under C21T, -0.902 ± 0.079.
With C21L, the abundance fitness is -1.07 ± 0.05.
For the variant C21S, the abundance fitness is -0.994 ± 0.063.
Take C21V: the abundance fitness was -1.05 ± 0.088.
For C20I, the abundance fitness is 0.103 ± 0.042.
On to C20P, for which the abundance fitness came to 0.096 ± 0.057.
Turning to C20M, the abundance fitness was 0.017 ± 0.064.
With C20Y, the abundance fitness stood at 0.066 ± 0.049.
With C20S, the abundance fitness amounted to 0.093 ± 0.047.
Under C20V stands -0.035 ± 0.045.
As for C20G, the abundance fitness came out at 0.083 ± 0.059.
Consider C20A, for which the abundance fitness was found to be 0.099 ± 0.057.
As for C20L, the abundance fitness is 0.012 ± 0.043.
For C20Q, the abundance fitness turned out to be 0.17 ± 0.065.
C20R: the abundance fitness was 0.13 ± 0.048.
Consider C20D, for which the abundance fitness came to 0.012 ± 0.082.
The figure for C20H is 0.168 ± 0.065; for C20N it is 0.14 ± 0.069; for C20F it is -0.035 ± 0.06.
As for C20E, the abundance fitness turned out to be 0.136 ± 0.065.
As for C20K, the abundance fitness is 0.095 ± 0.078.
Consider C20W, for which the abundance fitness came to 0.069 ± 0.056.
For the variant C24W, the abundance fitness was -0.905 ± 0.11.
The figure for C24G is -0.894 ± 0.073; for C24A it is -0.739 ± 0.05.
Take C24I: the abundance fitness was -0.706 ± 0.061.
Consider C24V, for which the abundance fitness is -0.617 ± 0.054.
As for C24P, the abundance fitness is -0.819 ± 0.064.
For the variant C24L, the abundance fitness was -0.816 ± 0.047.
Under C24N stands -0.881 ± 0.11; under C24M, -0.944 ± 0.058; under C24S, -0.788 ± 0.064.
C24T: the abundance fitness is -0.862 ± 0.079.
The figure for C24Y is -0.696 ± 0.1.
Under C24R stands -0.629 ± 0.061.
Under C24Q stands -0.907 ± 0.078; under C24H, -0.909 ± 0.097.
Consider C24F, for which the abundance fitness was -1.01 ± 0.12.
Regarding C24K, the abundance fitness was -0.702 ± 0.048.
Under C24E stands -1.09 ± 0.16.
The figure for T23R is 0.038 ± 0.063; for T23S it is -0.044 ± 0.049.
Turning to T23L, the abundance fitness is -0.195 ± 0.053.
Regarding T23A, the abundance fitness is -0.119 ± 0.074.
The figure for T23D is -0.305 ± 0.11; for T23P it is -0.738 ± 0.053.
Consider T23C, for which the abundance fitness is -0.074 ± 0.088.
For T23Q, the abundance fitness was -0.07 ± 0.066.
Consider T23E, for which the abundance fitness is 0.047 ± 0.083.
As for T23W, the abundance fitness was -0.2 ± 0.044.
As to T23M, the abundance fitness is -0.077 ± 0.067.
Turning to T23Y, the abundance fitness was -0.084 ± 0.058.
Regarding T23I, the abundance fitness was -0.042 ± 0.042.
The figure for T23N is 0.093 ± 0.067.
For the variant T23V, the abundance fitness is -0.075 ± 0.072.
Take T23K: the abundance fitness is -0.031 ± 0.065.
As for T23F, the abundance fitness is -0.221 ± 0.077.
Under T23H stands -0.107 ± 0.076.
